From patent US20230075633A1

What was measured:
human CD3 (human) [1] = biological target: human CD3 (human) (UniProt P07766); test: flow cytometry on Jurkat cells
human CEA (human) = human CEA (human) (UniProt P06731); test: cell-based or functional assay
human CD3 (human) [2] = biological target: human CD3 (human) (UniProt P07766); test: flow cytometry on human PBMC (ND 12)

Chain of human CEA (human) (P06731 35-702, form in doubt): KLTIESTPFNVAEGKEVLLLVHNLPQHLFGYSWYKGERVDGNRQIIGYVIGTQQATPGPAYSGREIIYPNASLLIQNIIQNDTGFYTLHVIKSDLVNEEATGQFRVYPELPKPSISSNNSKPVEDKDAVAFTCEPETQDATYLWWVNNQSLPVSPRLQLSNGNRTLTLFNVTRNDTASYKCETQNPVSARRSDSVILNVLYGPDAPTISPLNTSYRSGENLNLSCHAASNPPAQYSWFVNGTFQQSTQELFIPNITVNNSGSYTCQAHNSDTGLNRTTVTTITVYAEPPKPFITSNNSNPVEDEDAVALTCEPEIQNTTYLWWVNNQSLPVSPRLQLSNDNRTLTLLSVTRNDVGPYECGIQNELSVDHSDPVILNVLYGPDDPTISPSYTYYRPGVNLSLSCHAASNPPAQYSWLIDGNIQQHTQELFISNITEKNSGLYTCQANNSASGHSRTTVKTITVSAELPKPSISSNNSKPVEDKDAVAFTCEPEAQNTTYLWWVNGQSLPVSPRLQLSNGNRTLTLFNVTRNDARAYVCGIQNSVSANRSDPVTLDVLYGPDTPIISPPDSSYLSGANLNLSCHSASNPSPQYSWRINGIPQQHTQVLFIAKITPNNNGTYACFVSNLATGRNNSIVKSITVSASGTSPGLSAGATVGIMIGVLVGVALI
Chain of human CD3 (human) (P07766 23-207): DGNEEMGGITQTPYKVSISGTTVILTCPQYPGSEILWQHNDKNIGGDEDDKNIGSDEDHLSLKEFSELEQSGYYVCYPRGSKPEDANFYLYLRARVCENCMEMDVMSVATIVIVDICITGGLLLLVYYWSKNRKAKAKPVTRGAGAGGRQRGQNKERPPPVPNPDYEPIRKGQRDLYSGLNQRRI

For Roche CEA-TCB (bispecific antibody), the EC50 (human CD3 (human) [1]) was 0.207 nM, the cytolysis of LS174T cells by PBMC: EC50 (human CEA (human)) was 0.005 nM and the cytolysis of MKN-45 cells by PBMC, E/T 20:1, 48 h: EC50 against that of CEA/CD3OPT1a3b2b1 BsAb (human CEA (human)) was 50 fold. It also gave a cytolysis of MKN-45 cells by PBMC: EC50 (human CEA (human)) of 0.001 nM and an EC50 (human CD3 (human) [2]) of 0.34 nM.
